Source: publication PMC8729259 (RSC Chemical Biology, 2021)

Biological target: T1, His-SUMO-tagged SARS-CoV-2 nsp14 N-terminal ExoN domain (residues 1 to 289) (SARS-CoV-2)
T1 chain: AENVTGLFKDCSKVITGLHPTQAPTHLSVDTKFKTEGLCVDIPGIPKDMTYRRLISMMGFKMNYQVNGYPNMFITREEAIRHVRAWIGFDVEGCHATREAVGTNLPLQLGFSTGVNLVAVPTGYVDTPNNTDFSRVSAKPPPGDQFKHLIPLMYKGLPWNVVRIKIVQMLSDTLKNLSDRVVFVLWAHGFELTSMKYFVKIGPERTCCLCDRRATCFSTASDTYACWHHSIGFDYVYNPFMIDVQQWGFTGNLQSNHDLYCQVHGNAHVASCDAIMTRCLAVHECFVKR
Test: MST
Settings: both partners purified

B1: SARS-CoV-2 non-structural protein 10 (nsp10), full-length, without affinity tag (natural protein)
chain: AGNATEVPANSTVLSFCAFAVDAAKAYKDYLASGGQPITNCVKMLCTHTGTGQAITVTPEANMDQESFGGASCCLYCRCHIDHPNPKGFCDLKGKYVQIPTTCANDPVGFTLKNTVCTVCGMWKGYGCSCDQLREPMLQ
In the case of B1, the Kd is reported as 900 ± 300 nM.
